The target in series [1] is T1, EcAIII (Escherichia coli, UniProt P37595, M200T).
T1 construct: gene iaaA; untagged as described; EcAIII gene in pET11d, bacterial expression; precursor autoproteolytically matured to subunits alpha and beta from one gene, (alphabeta)2; purified by DEAE and SEC
Nature of the series: X-ray crystal structure. Format: binding. Conditions: M200T#m monoclinic, 1.84 Å; Gly added at 1:1 molar ratio; active site, two of four sites.

The target of series [2] is T2, EcAIII (Escherichia coli, UniProt P37595, M200L).
T2 construct: gene iaaA; untagged as described; EcAIII gene in pET11d, bacterial expression; precursor autoproteolytically matured to subunits alpha and beta from one gene, (alphabeta)2; purified by DEAE and SEC
In words: X-ray crystal structure. Conditions: covalent; beta-acyl-enzyme intermediate on Thr179, chain D. Format: binding.

Substrate in series [3]: NC(=O)C[C@H](N)C(=O)O
In words: purified protein. Format: biochemical, Escherichia coli. Conditions: 20 mM Tris-HCl pH 8.0, 20 °C, L-Asn 0-84 mM.

`NCC(=O)O` [Gly]: the X-ray crystal structure entry in series [1] is reported as “In the structure M200T#m, glycine molecules were found in two out of four active sites”.

Take `NC(=O)C[C@H](N)C(=O)O` [L-Asn]: in series [2], the X-ray crystal structure entry is recorded as “in the structure of variant M200L in chain D, we identified an acyl‐enzyme intermediate”.

B1: EcAIII (Escherichia coli K-12) (protein)
chain 1: GKAVIAIHGGAGAISRAQMSLQQELRYIEALSAIVETGQKMLEAGESALDVVTEAVRLLEECPLFNAGIGAVFTRDETHELDACVMDGNTLKAGAVAGVSHLRNPVLAARLVMEQSPHVMMIGEGAENFAFARGMERVSPEIFSTSLRYEQLLAARKEGATVLDHSGAPLDEKQKMG
chain 2: TVGAVALDLDGNLAAATSTGGMTNKLPGRVGDSPLVGAGCYANNASVAVSCTGTGEVFIRALAAYDIAALMDYGGLSLAEACERVVMEKLPALGGSGGLIAIDHEGNVALPFNTEGMYRAWGYAGDTPTTGIYREKGDTVATQ
notes: untagged as described; EcAIII gene in pET11d, bacterial expression; precursor autoproteolytically matured to subunits alpha and beta from one gene, (alphabeta)2; purified by DEAE and SEC
In the case of B1, in series [3], the Km – broadly, the substrate concentration at which the rate is half of its maximum – worked out at 22 ± 3 mM and the kcat (as a rule, the maximal rate divided by the concentration of active sites) came out at 501 ± 22.3 s⁻¹.

B2: EcAIII (Escherichia coli K-12; M200W) (protein)
chain 1: GKAVIAIHGGAGAISRAQMSLQQELRYIEALSAIVETGQKMLEAGESALDVVTEAVRLLEECPLFNAGIGAVFTRDETHELDACVMDGNTLKAGAVAGVSHLRNPVLAARLVMEQSPHVMMIGEGAENFAFARGMERVSPEIFSTSLRYEQLLAARKEGATVLDHSGAPLDEKQKMG
chain 2: TVGAVALDLDGNLAAATSTGGWTNKLPGRVGDSPLVGAGCYANNASVAVSCTGTGEVFIRALAAYDIAALMDYGGLSLAEACERVVMEKLPALGGSGGLIAIDHEGNVALPFNTEGMYRAWGYAGDTPTTGIYREKGDTVATQ
notes: as for B1
Regarding B2, in series [3], the Km is recorded as 36 ± 10 mM and the kcat came out at 290 ± 37.3 s⁻¹.

B3: EcAIII (Escherichia coli K-12; M200K) (protein)
chain 1: GKAVIAIHGGAGAISRAQMSLQQELRYIEALSAIVETGQKMLEAGESALDVVTEAVRLLEECPLFNAGIGAVFTRDETHELDACVMDGNTLKAGAVAGVSHLRNPVLAARLVMEQSPHVMMIGEGAENFAFARGMERVSPEIFSTSLRYEQLLAARKEGATVLDHSGAPLDEKQKMG
chain 2: TVGAVALDLDGNLAAATSTGGKTNKLPGRVGDSPLVGAGCYANNASVAVSCTGTGEVFIRALAAYDIAALMDYGGLSLAEACERVVMEKLPALGGSGGLIAIDHEGNVALPFNTEGMYRAWGYAGDTPTTGIYREKGDTVATQ
notes: as for B1
Turning to B3, in series [3], the Km was found to be 40 ± 9 mM and the kcat came out at 127 ± 11.9 s⁻¹.

B4: EcAIII (Escherichia coli K-12; M200L) (protein)
chain 1: GKAVIAIHGGAGAISRAQMSLQQELRYIEALSAIVETGQKMLEAGESALDVVTEAVRLLEECPLFNAGIGAVFTRDETHELDACVMDGNTLKAGAVAGVSHLRNPVLAARLVMEQSPHVMMIGEGAENFAFARGMERVSPEIFSTSLRYEQLLAARKEGATVLDHSGAPLDEKQKMG
chain 2: TVGAVALDLDGNLAAATSTGGLTNKLPGRVGDSPLVGAGCYANNASVAVSCTGTGEVFIRALAAYDIAALMDYGGLSLAEACERVVMEKLPALGGSGGLIAIDHEGNVALPFNTEGMYRAWGYAGDTPTTGIYREKGDTVATQ
notes: as for B1
For the molecule B4, in series [3], the Km came out at 37 ± 5 mM and the catalytic constant (kcat) was 195 ± 12.7 s⁻¹.

B5: EcAIII (Escherichia coli K-12; M200I) (protein)
chain 1: GKAVIAIHGGAGAISRAQMSLQQELRYIEALSAIVETGQKMLEAGESALDVVTEAVRLLEECPLFNAGIGAVFTRDETHELDACVMDGNTLKAGAVAGVSHLRNPVLAARLVMEQSPHVMMIGEGAENFAFARGMERVSPEIFSTSLRYEQLLAARKEGATVLDHSGAPLDEKQKMG
chain 2: TVGAVALDLDGNLAAATSTGGITNKLPGRVGDSPLVGAGCYANNASVAVSCTGTGEVFIRALAAYDIAALMDYGGLSLAEACERVVMEKLPALGGSGGLIAIDHEGNVALPFNTEGMYRAWGYAGDTPTTGIYREKGDTVATQ
notes: as for B1
As to B5, in series [3], the Km is on record as 35 ± 4 mM and the kcat turned out to be 632 ± 37.9 s⁻¹.

B6: EcAIII (Escherichia coli K-12; M200T) (protein)
chain 1: GKAVIAIHGGAGAISRAQMSLQQELRYIEALSAIVETGQKMLEAGESALDVVTEAVRLLEECPLFNAGIGAVFTRDETHELDACVMDGNTLKAGAVAGVSHLRNPVLAARLVMEQSPHVMMIGEGAENFAFARGMERVSPEIFSTSLRYEQLLAARKEGATVLDHSGAPLDEKQKMG
chain 2: TVGAVALDLDGNLAAATSTGGTTNKLPGRVGDSPLVGAGCYANNASVAVSCTGTGEVFIRALAAYDIAALMDYGGLSLAEACERVVMEKLPALGGSGGLIAIDHEGNVALPFNTEGMYRAWGYAGDTPTTGIYREKGDTVATQ
notes: as for B1
Take B6: in series [3], the Michaelis constant (Km) came to 64 ± 6 mM and the kcat turned out to be 217 ± 10.6 s⁻¹.

The record behind these values is paper PMC10204187, “The effects of nature‐inspired amino acid substitutions on structural and biochemical properties of the E. coli L‐asparaginase EcAIII” (Protein Science : A Publication of the Protein Society, 2023).
